Test results from patent publication US20160281093, “METHODS AND COMPOSITIONS FOR INTERFERENCE WITH DNA POLYMERASE AND DNA SYNTHESIS” (GEORGIA STATE UNIVERSITY RESEARCH FOUNDATION, INC., published 2016).

Biological target: E. coli DNA polymerase I (Escherichia coli, UniProt P00582 P00582:1-928)
Test: EMSA; Kd stated as determined from binding curves but value not given; RNA 50 nM, pol 0-80 nM, 10 mM KCl, 1 mM DTT, 5% glycerol, pH 7.0
Details: tags: New England Biolabs; label: body-labeled 32P
Experimental: A mixture (5 μL) containing bodily ³²P-labeled RNA 69-mer (50 nM, final), DNA polymerase I (0, 20, 40, 60, or 80 nM), and binding buffer (final: 10 mM KCl, 1 mM DTT, 5% glycerol, pH 7.0) was incubated at room temperature for 30 minutes and then placed at 4° C. overnight. The binding solutions were mixed with the gel loading dye (final: 10 mM KCl, 1 mM DTT, 5% glycerol, 0.001% xylene blue w/v) and then loaded on 10% non-denaturing polyacrylamide gel in the running buffer (5 mM Tris-HCl, 10 mM EDTA, and pH 7.5). The gel was pre-run for 1 hour at 250 volts. After loading the samples, the gel was run with a constant voltage (250 volts) for one hour; all operations were performed in 4° C. cold room. The gel was fixed with 7% acetic acid (in methanol), dried, and scanned. The radioactive bands were quantified by phosphorimager using image quantifying software. […] Dissociation constant was determined from the binding curves.
A mixture (5 μL) containing bodily ³²P-labeled RNA 69-mer (50 nM, final), DNA polymerase I (0, 20, 40, 60, or 80 nM), and binding buffer (final: 10 mM KCl, 1 mM DTT, 5% glycerol, pH 7.0) was incubated at room temperature for 30 minutes and then placed at 4° C. overnight. […] The radioactive bands were quantified by phosphorimager using image quantifying software. […] Dissociation constant was determined from the binding curves.

Sequence of E. coli DNA polymerase I (P00582 whole entry, one chain of several): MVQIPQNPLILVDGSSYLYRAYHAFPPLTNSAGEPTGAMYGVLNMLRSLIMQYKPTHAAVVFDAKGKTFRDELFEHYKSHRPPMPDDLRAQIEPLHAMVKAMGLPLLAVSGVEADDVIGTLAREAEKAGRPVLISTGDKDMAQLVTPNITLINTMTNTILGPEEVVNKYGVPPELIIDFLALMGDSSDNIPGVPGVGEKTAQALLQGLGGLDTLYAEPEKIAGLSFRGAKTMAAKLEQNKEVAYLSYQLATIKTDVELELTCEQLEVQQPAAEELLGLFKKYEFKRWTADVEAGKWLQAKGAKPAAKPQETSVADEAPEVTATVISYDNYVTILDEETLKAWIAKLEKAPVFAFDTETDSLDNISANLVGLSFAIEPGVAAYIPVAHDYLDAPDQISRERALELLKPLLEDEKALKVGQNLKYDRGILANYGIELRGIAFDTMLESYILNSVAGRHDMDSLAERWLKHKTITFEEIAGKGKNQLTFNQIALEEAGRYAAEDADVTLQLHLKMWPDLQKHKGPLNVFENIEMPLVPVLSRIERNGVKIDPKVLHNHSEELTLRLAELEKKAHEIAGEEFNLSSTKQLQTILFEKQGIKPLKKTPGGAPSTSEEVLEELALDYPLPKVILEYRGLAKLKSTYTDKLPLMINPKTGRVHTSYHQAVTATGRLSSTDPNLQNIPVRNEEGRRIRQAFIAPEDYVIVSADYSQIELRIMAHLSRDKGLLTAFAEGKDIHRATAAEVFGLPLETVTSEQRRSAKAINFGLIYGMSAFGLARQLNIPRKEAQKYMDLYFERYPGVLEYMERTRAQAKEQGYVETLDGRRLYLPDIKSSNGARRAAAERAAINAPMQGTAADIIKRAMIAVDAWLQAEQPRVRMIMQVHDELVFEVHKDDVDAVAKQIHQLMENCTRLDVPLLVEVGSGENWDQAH

B1: RNA-69mer (ssRNA)
RNA: GGGAGCCCUGUCACCGGAUGUGCUUUCCGGUCUGAUGAGUCCGUGAGGACAAAACAGGGCUCCCGAAUU
binding result: binds
